{
  "source": "paper PMC6016246",
  "about": "“Cytokinin Signaling in Mycobacterium tuberculosis” (mBio, 2018)",
  "binders": {"B1": {"name": "Rv0078-His6 (TetR-like transcriptional repressor Rv0078) (natural protein)", "chain": "MEIKRRTQEERSAATREALITGARKLWGLRGYAEVGTPEIATEAGVTRGAMYHQFADKAALFRDVVEVVEQDVMARMATLVAASGAATPADAIRAAVDAWLEVSGDPEVRQLILLDAPVVLGWAGFRDVAQRYSLGMTEQLITEAIRAGQLARQPVRPLAQVLIGALDEAAMFIATADDPKRARRETRQVLRRLIDGMLNG", "notes": "also called LoaR; EthR2; not shown: His6, C-terminal, kept"}, "B2": {"name": "23-mer operator duplex (dsDNA)", "DNA 1": "TTTACAAGCAGACTGCCGGTAAC", "DNA 2": "GTTACCGGCAGTCTGCTTGTAAA"}, "B3": {"name": "+13/-8 DNA probe (ITC) (dsDNA)", "DNA 1": "TTACAAGCAGACTGCCGGTAA", "DNA 2": "TTACCGGCAGTCTGCTTGTAA"}},
  "key": {"[1]": {"target": "the molecule itself", "assay": "crystal structure; DNA-free Rv0078, C2 space group crystals, sitting-drop vapor diffusion at 20°C, 0.1 M sodium cacodylate pH 6.4, 1.3 M lithium sulfate; 1.85 Å"}, "[2]": {"target": "T1, Rv0078 (Mycobacterium tuberculosis, UniProt O53623 1-201)", "T1 sequence": "B1 chain", "assay": "crystal structure; […], room temperature 30 min; […], buffer not stated", "conditions": "protein: recombinant; tags: C-terminal His6; chain copies: 4; blunt"}, "[3]": {"target": "T1, Rv0078", "assay": "ITC; […], room temperature 30 min; […], buffer not stated", "conditions": "protein: recombinant; tags: C-terminal His6; chain copies: 4"}},
  "data": [
    {"binder": "B1", "values": [
      {"measurement": "stoichiometry N", "setting": "[1]", "result": 2}
    ]},
    {"binder": "B2", "values": [
      {"measurement": "binding result", "setting": "[2]", "result": "binds"}
    ]},
    {"binder": "B3", "values": [
      {"measurement": "Kd", "setting": "[3]", "result": 357, "unit": "nM"}
    ]}
  ]
}
